Read-outs that look alike come from different tables or passages of the source.
Experiments:
[1] = test system: MBNL1 protein levels in DM1 cells; assay type: cell-based, human; conditions: for Tindex (therapeutic index): Tindex = TC50 x Emax / EC50; for EC50: median effective concentration for MBNL1 increase, DM1 myotubes, lipofection (X-tremeGENE HP), medium replaced after 4 h, cells collected day 4, each concentration in triplicate; for MBNL1 fold change: vs untreated DM1 cells
Description: Immortalized MyoD-inducible (doxycycline) DM1 and control fibroblasts were kindly provided by Dr Furling (Institute of Myology, Paris, France).[38] For the activity assay, cells were seeded in 6-well plates at a density of 8 × 10^4 cells/well and grown in DMEM with 4.5 g/L glucose, 1% P/S, and 10% FBS (Sigma, St. Louis, MO). […] In all cases, the cells were grown at 37°C in a humidified atmosphere containing 5% CO2. Transdifferentiation was induced at day 0, and transfection was performed by lipofection with X-tremeGENE HP (Roche, Basel, Switzerland) 24 h later, with antimiRs and test compounds in the cell medium at different concentrations (from 0.4 nM to 5 μM). The medium was replaced with fresh differentiation medium 4 h afterward. In the gymnosis assay, test compounds were added to the culture medium only at the corresponding EC50 concentration. Cells were collected on day 4 of differentiation and were processed for protein extraction.
For total protein extraction, human muscle cells were sonicated while mouse muscles (gastrocnemius and quadriceps) were homogenized in Pierce RIPA buffer (Thermo Scientific, Waltham, MA) supplemented with protease and phosphatase inhibitor cocktails (Roche Applied Science, Penzberg, Germany). Quantification of total protein was performed with a Pierce BCA protein assay kit (Thermo Scientific) using bovine serum albumin as standard.
A 96-well plate QDB assay was used[87] to determine MBNL1 protein levels in all replicates and concentrations of each ON tested. This technique allows for high-throughput screening of low protein concentration samples over conventional western blot (WB) (Figure S9).[88] Cell samples (1 μg/well) and mice samples (2 μg/well) were prepared with 4× loading buffer, denatured (100°C for 5 min) and loaded in QDB plates (Quanticision Diagnostics, Research Triangle Park, NC). For the quantification of in vitro samples, the QDB was performed exactly as described in Moreno et al.[87] […] For Mbnl1 quantification in mouse muscle tissues, we implemented the following modifications: each sample was loaded in quadruplicate on three different plates. One was used to detect Mbnl1 with a mouse MB1a(4A8) antibody (DSHB, Iowa City, IA) using a 1:200 dilution. A second plate was used to quantify tubulin (endogenous normalization control) with a mouse 12G10 antibody (DSHB) using a 1:1,000 dilution. A third plate was used to quantify IgG signal (negative control to subtract background) using an anti-mouse-IgG secondary antibody (Sigma-Aldrich) at 1:3,500 dilution. […] All primary antibodies were detected using horseradish peroxidase-conjugated anti-mouse-IgG secondary antibody (1:5,000 for the anti-mouse plate, 1:2,000 for cell plates, and 1:3,500 for mouse plates [Sigma-Aldrich, MO]). Immunoreactive bands were detected using Pierce ECL Western reagent (Thermo Scientific), and luminescence levels were determined using an Infinite M200 PRO plate reader (Tecan). […] WB assay was performed as described previously.[20]
After obtaining the TC50, EC50, and Emax in vitro, we defined a Tindex as follows: Tindex=TC50×Emax/EC50

HSALR mice = test: Serum biochemistry profile; assay type: in vivo, mouse
From the text: (§1) Mouse handling and experimental procedures followed the European law regarding laboratory animal care and experimentation (2003/65/C.E.) and were approved by Conselleria de Agricultura, […] (reference no. A1539961490857). We used homozygous transgenic HSA^LR (line 20 b) mice,[90] which were kindly provided by Dr Thornton (Rochester, NY) and were housed and bred in our animal facility. […] The mice were randomly allocated to the different treatments as follows: in each cage, each mouse was ear-marked as it was taken out, and each mouse was then assigned to a different treatment. Animals were injected biweekly intravenously with 150 μL of 1× PBS vehicle (controls; […] Mice were sacrificed 45 days after the first injection and the tissues of interest were frozen in liquid nitrogen for the molecular and histological assays. All the mice used in this study ranged from 5 to 5.5 months of age and all were males. At 45 days post treatment, animals were sacrificed, and blood was collected by cardiac puncture exsanguination with K3-EDTA (Sarstedt, Nümbrecht, Germany). The samples were analyzed by Laboratorios Montoro Botella (Valencia, Spain).

[2] = Bodyweight-normalized spleen weight and body weight; assay type: in vivo, mouse
From the text: as §1, with “males.” for “males. At 45 days post treatment, animals were sacrificed, and blood was collected by cardiac puncture exsanguination with K3-EDTA (Sarstedt, Nümbrecht, Germany). The samples were analyzed by Laboratorios Montoro Botella (Valencia, Spain).”

[3] = HSALR mice, 9.2 mg/kg (mean) i.v. x3, day 45, serum, mean ± sd, n = 5

Substance	Tindex (therapeutic index) [1]	EC50 [1] [nM]	ALT (HSALR mice; mouse, in vivo, iv, 9.2 mg/kg)	Alkaline Phosphatase (HSALR mice; mouse, in vivo, iv, 9.2 mg/kg)	Amylase (HSALR mice; mouse, in vivo, iv, 9.2 mg/kg)	Bile Acids (HSALR mice; mouse, in vivo, iv, 9.2 mg/kg)	Bilirubin (HSALR mice; mouse, in vivo, iv, 9.2 mg/kg)	Creatinine (HSALR mice; mouse, in vivo, iv, 9.2 mg/kg)	Weight ([2]; mouse, in vivo, iv, 9.2 mg/kg)	Lipase (HSALR mice; mouse, in vivo, iv, 9.2 mg/kg)	Urea (HSALR mice; mouse, in vivo, iv, 9.2 mg/kg)	other results
6aKC-23b (antisense GGUAAUCCCUGGCAAUGUGAU; all phosphorodiamidate morpholino (PMO), T or U not given here; Pip6aKC peptide conjugated)	7.78	453	57,8 ± 13,349 U/L	58,40 ± 6,693 U/L	4232,6 ± 2590,822 U/L	0,675 ± 0,754 µmol/L	0,11 ± 0,083 mg/dL	0,20 ± 0 mg/dL	39.84 ± 3,561 g			MBNL1 fold change ([1]; transfection, 1,000 nM): ~2 fold; AST (HSALR mice; mouse, in vivo, iv, 9.2 mg/kg): 143,60 ± 41,464 U/L; C.P.K. (HSALR mice; mouse, in vivo, iv, 9.2 mg/kg): 831,8 ± 357,821 U/L; Glucose (HSALR mice; mouse, in vivo, iv, 9.2 mg/kg): 121,2 ± 27,607 mg/dL; L.D.H. (HSALR mice; mouse, in vivo, iv, 9.2 mg/kg): 2574 ± 453,119 U/L; Total cholesterol (HSALR mice; mouse, in vivo, iv, 9.2 mg/kg): 227,40 ± 11,014 mg/dL; Triglycerides (HSALR mice; mouse, in vivo, iv, 9.2 mg/kg): 235,4 ± 40,209 mg/dL
6aKC-218 (antisense ACAUGGUUAGAUCAAGCACAA; all phosphorodiamidate morpholino (PMO), T or U not given here; Pip6aKC peptide conjugated)	22.78	138	60,20 ± 16,208 U/L	58 ± 4,123 U/L	2999,4 ± 120,286 U/L	2,38 ± 3,406 µmol/L	0,096 ± 0,03 mg/dL	0,20 ± 0 mg/dL	39,02 ± 1,460 g			MBNL1 fold change ([1]; transfection, 1,000 nM): ~1.5 fold; AST (HSALR mice; mouse, in vivo, iv, 9.2 mg/kg): 138,4 ± 57,665 U/L; C.P.K. (HSALR mice; mouse, in vivo, iv, 9.2 mg/kg): 818 ± 604,389 U/L; Glucose (HSALR mice; mouse, in vivo, iv, 9.2 mg/kg): 107,2 ± 31,292 mg/dL; L.D.H. (HSALR mice; mouse, in vivo, iv, 9.2 mg/kg): 2137,60 ± 340,071 U/L; Total cholesterol (HSALR mice; mouse, in vivo, iv, 9.2 mg/kg): 232 ± 12,124 mg/dL; Triglycerides (HSALR mice; mouse, in vivo, iv, 9.2 mg/kg): 273,4 ± 51,335 mg/dL
9b2-23b (antisense GGUAAUCCCUGGCAAUGUGAU; all phosphorodiamidate morpholino (PMO), T or U not given here; Pip9b2 peptide conjugated)	25.19	16	47 ± 6,708 U/L	61 ± 4,301 U/L	2754,4 ± 540,954 U/L	9 ± 11,747 µmol/L	0,102 ± 0,029 mg/dL	0,26 ± 0,054 mg/dL	32,78 ± 4,285 g	36,60 ± 8,264 U/L	53 ± 2,345 mg/dL	ΔTindex ([1]; fold change in Tindex relative to the control antagomiR against the same miRNA): 0.34 fold change; urea values vs HSALR group treated with PBS (HSALR mice; mouse, in vivo, iv, 9.2 mg/kg): statistically significant increase in the urea values; Weight (g) W.0 ([2]; mouse, in vivo): 28.7 g; Weight (g) W.1 ([2]; mouse, in vivo): 29.2 g; Weight (g) W.2 ([2]; mouse, in vivo): 28.6 g; Weight (g) W.3 ([2]; mouse, in vivo): 29 g; Weight (g) W.4 ([2]; mouse, in vivo): 29.1 g; Weight (g) W.5 ([2]; mouse, in vivo): 29.4 g; Weight (g) W.6 ([2]; mouse, in vivo): 29.1 g
9b2-218 (antisense ACAUGGUUAGAUCAAGCACAA; all phosphorodiamidate morpholino (PMO), T or U not given here; Pip9b2 peptide conjugated)	2.52	64.7	49 ± 19,079 U/L	61,40 ± 6,730 U/L	2773,2 ± 363,954 U/L	74,80 ± 159,433 µmol/L	0,108 ± 0,044 mg/dL	0,32 ± 0,192 mg/dL	30,76 ± 2,745 g	63,8 ± 75,793 U/L	44,40 ± 6,985 mg/dL	
9b2KC-23b (antisense GGUAAUCCCUGGCAAUGUGAU; all phosphorodiamidate morpholino (PMO), T or U not given here; Pip9b2KC peptide conjugated)	404.48	2	45,20 ± 1,303 U/L	58,8 ± 5,718 U/L	2952,6 ± 123,373 U/L	8,40 ± 8,264 µmol/L	0,10 ± 0,045 mg/dL	0.20 ± 0,071 mg/dL	32,22 ± 5,551 g	30,6 ± 6,730 U/L	43,6 ± 6,580 mg/dL	TC50 relative to EC50 [1]: 128 fold; MBNL1 fold change ([1]; transfection, 200 nM): ~3 fold
9b2KC-218 (antisense ACAUGGUUAGAUCAAGCACAA; all phosphorodiamidate morpholino (PMO), T or U not given here; Pip9b2KC peptide conjugated)	198.07	2.58	47 ± 10 U/L	59,8 ± 6,300 U/L	2593,4 ± 987,253 U/L	55,20 ± 107,339 µmol/L	0,112 ± 0,026 mg/dL	0,22 ± 0,084 mg/dL	31,28 ± 4,11 g	134,4 ± 227,401 U/L	41 ± 1,871 mg/dL	MBNL1 fold change ([1]; transfection, 10 nM): ~6 fold
TCTTACCTCAGTTACAATTTA-Pip9b2 [Scramble, reference compound]		890										Emax (maximum fold change) ([1]; highest MBNL1 protein level vs untreated DM1 cells over the concentrations tested, transfection): 1.30 fold change; ability to enhance MBNL1 expression ([1]; transfection, all concentrations tested (10 nM to 5 μM)): no ability to enhance MBNL1 expression at any concentration tested; ALT (HSALR mice; [3]): 47,6 ± 11,327 U/L; AST (HSALR mice; [3]): 129,60 ± 33,687 U/L; Alkaline Phosphatase (HSALR mice; [3]): 61 ± 6,557 U/L; Amylase (HSALR mice; [3]): 3234,2 ± 476,489 U/L; Bile Acids (HSALR mice; [3]): 3,38 ± 5,188 µmol/L; Bilirubin (HSALR mice; [3]): 0,118 ± 0,026 mg/dL; C.P.K. (HSALR mice; [3]): 763 ± 244,663 U/L; Creatinine (HSALR mice; [3]): 0,20 ± 0 mg/dL; Glucose (HSALR mice; [3]): 113,60 ± 35,352 mg/dL; L.D.H. (HSALR mice; [3]): 2438,8 ± 183,91 U/L; Total cholesterol (HSALR mice; [3]): 224,40 ± 11,216 mg/dL; Triglycerides (HSALR mice; [3]): 259,8 ± 56,287 mg/dL; Spleen weight ratio ([2]; HSALR mice, 9.2 mg/kg (mean) i.v. x3, day 45, bodyweight-normalized, mean ± sd, n = 5): 0,0029 ± 0,0005; Weight ([2]; HSALR mice, 9.2 mg/kg (mean) i.v. x3, body weight, mean ± sd, n = 5): 37,36 ± 2,928 g

— article PMC10514136, “Peptide-conjugated antimiRs improve myotonic dystrophy type 1 phenotypes by promoting endogenous MBNL1 expression” (Molecular Therapy. Nucleic Acids, 2023)
